# In paper PMC4031664 (Prion, 2013):
# Assays:
# native gel or EMSA = target: the molecule itself; assay: native gel or EMSA
# [1] = target: the molecule itself
protein,measurement,setting,value
C-terminal PrP domain (mouse PrP 120–231) (domain or fragment) not shown,binding result,native gel or EMSA,binds
Syrian hamster PrP90–232 (domain or fragment) not shown,binding result,native gel or EMSA,binds
full-length PrP (mouse PrP 23–231) (natural protein) not shown,binding result,native gel or EMSA,binds
PrP-like ectodomain of ZIP5 (domain or fragment) WVGGSVPNLGPAEQEQNHYLAQLFGLYGENGTLTAGGLARLLHSLGLGRVQGLRLGHHEPPTGRAAPTSGDNFTHRLQEPELSVDIWAGMPLGPSGWGDQEESKAPDLHGSGPSSLDLFQRLLLLDHSLADHLNEDCLNGSQLLVNFGLSPVAPLTPRQFALLCPALLYQIDSRVCIKTPAPAPPGDVLSA,stoichiometry N,[1],2
